Values of other authors, collected in patent US20180140739A1, “HAEMOSTATIC DEVICE” (HAEMOSTATIX LIMITED, priority 2015, published 2018).

Biological target: T1, fibrinogen hole 'a' and hole 'b' (Homo sapiens, UniProt P02675+P02679)
T1 sequence (P02679 27-433 limits assumed): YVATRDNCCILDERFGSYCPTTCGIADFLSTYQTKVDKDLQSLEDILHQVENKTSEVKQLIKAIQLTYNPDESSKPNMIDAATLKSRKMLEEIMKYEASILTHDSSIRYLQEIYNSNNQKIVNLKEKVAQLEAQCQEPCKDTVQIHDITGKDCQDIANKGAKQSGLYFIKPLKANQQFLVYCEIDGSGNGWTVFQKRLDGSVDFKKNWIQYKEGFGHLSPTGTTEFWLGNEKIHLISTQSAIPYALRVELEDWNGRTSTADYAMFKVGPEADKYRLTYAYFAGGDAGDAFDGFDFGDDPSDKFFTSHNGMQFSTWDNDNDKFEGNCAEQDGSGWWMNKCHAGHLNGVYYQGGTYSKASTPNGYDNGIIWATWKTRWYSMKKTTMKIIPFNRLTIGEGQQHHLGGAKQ
T1 sequence (P02675 31-491): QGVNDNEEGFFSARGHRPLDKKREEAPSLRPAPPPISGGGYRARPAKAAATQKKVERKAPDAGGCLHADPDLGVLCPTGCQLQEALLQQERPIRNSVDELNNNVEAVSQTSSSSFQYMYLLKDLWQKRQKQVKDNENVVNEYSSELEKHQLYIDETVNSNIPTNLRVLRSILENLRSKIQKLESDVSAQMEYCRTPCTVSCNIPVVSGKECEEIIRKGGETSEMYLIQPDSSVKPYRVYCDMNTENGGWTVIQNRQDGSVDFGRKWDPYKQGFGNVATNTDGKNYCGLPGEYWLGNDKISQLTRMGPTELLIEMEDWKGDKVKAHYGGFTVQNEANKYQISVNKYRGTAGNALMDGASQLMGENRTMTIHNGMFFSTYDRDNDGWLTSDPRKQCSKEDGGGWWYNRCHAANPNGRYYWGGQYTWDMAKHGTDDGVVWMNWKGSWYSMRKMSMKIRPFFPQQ
T1 sequence (P02671 20-629 partner limits assumed): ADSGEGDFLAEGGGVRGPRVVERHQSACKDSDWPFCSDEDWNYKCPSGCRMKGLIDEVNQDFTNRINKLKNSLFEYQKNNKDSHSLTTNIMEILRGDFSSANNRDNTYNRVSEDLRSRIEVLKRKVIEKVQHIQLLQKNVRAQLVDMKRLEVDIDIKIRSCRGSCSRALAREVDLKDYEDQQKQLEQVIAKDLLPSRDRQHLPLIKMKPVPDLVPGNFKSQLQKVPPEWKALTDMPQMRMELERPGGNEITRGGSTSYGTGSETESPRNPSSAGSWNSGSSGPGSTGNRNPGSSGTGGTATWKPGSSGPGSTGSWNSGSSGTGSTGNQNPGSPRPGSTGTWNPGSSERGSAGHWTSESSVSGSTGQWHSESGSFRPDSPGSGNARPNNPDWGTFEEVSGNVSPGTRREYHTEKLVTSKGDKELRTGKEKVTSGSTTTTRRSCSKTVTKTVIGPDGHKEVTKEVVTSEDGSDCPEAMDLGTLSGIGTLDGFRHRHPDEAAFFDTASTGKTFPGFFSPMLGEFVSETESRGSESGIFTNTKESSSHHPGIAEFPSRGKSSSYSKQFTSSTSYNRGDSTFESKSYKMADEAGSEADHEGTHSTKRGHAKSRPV
Settings: cited from earlier work

GPRPG (listed as Homo sapiens)
binding preference for hole 'a' / hole 'b' of fibrinogen: binds to hole ‘a’ and hole ‘b’ of fibrinogen, but with some preference for hole ‘a’
